Laboratory results reported in paper PMC4975667.

Biological target: Human full-length BAX (1–192) wild type, recombinant (human) (UniProt Q07812)

Human full-length BAX (1–192) wild type, recombinant (from UniProt Q07812 1-192) (natural protein)
Kd: 32 µM
